Assay results as given in PMC8908248 (The Journal of Biological Chemistry, 2022).

Experiments:
[1] = target: homodimeric sulfite oxidase Mo domain (Mo/Mo) (human); experiment: SEC
SEC = target: the molecule itself; experiment: SEC

Molecule “homodimeric sulfite oxidase Mo domain (Mo/Mo) (domain or fragment)” has a stoichiometry N [1] of 2.

B1: mature full-length human sulfite oxidase (WT SOX/SOX homodimer) (enzyme, UniProt P51687 80-545, looked up)
chain: ESTHIYTKEEVSSHTSPETGIWVTLGSEVFDVTEFVDLHPGGPSKLMLAAGGPLEPFWALYAVHNQSHVRELLAQYKIGELNPEDKVAPTVETSDPYADDPVRHPALKVNSQRPFNAEPPPELLTENYITPNPIFFTRNHLPVPNLDPDTYRLHVVGAPGGQSLSLSLDDLHNFPRYEITVTLQCAGNRRSEMTQVKEVKGLEWRTGAISTARWAGARLCDVLAQAGHQLCETEAHVCFEGLDSDPTGTAYGASIPLARAMDPEAEVLLAYEMNGQPLPRDHGFPVRVVVPGVVGARHVKWLGRVSVQPEESYSHWQRRDYKGFSPSVDWETVDFDSAPSIQELPVQSAITEPRDGETVESGEVTIKGYAWSGGGRAVIRVDVSLDGGLTWQVAKLDGEEQRPRKAWAWRLWQLKAPVPAGQKELNIVCKAVDDGYNVQPDTVAPIWNLRGVLSNAWHRVHVYVSP
B1 was tested, and the “stoichiometry N” value (SEC) was 2.
